Data: patent publication US8058228B2, “Leptin peptide antagonists” (Boston Biomedical Research Institute, priority 2004, dated 2011)

Target: T1, OB-R (Homo sapiens, UniProt P48357)
T1 construct: After confirming via Western that the primary EEC and ESC and endometrial cell lines utilized herein had OB-R; endogenous in cells; host or cells: primary human EEC and ESC; Ishikawa (ECACC 9832301) and HES cell lines
T1 sequence (P48357 22-1165): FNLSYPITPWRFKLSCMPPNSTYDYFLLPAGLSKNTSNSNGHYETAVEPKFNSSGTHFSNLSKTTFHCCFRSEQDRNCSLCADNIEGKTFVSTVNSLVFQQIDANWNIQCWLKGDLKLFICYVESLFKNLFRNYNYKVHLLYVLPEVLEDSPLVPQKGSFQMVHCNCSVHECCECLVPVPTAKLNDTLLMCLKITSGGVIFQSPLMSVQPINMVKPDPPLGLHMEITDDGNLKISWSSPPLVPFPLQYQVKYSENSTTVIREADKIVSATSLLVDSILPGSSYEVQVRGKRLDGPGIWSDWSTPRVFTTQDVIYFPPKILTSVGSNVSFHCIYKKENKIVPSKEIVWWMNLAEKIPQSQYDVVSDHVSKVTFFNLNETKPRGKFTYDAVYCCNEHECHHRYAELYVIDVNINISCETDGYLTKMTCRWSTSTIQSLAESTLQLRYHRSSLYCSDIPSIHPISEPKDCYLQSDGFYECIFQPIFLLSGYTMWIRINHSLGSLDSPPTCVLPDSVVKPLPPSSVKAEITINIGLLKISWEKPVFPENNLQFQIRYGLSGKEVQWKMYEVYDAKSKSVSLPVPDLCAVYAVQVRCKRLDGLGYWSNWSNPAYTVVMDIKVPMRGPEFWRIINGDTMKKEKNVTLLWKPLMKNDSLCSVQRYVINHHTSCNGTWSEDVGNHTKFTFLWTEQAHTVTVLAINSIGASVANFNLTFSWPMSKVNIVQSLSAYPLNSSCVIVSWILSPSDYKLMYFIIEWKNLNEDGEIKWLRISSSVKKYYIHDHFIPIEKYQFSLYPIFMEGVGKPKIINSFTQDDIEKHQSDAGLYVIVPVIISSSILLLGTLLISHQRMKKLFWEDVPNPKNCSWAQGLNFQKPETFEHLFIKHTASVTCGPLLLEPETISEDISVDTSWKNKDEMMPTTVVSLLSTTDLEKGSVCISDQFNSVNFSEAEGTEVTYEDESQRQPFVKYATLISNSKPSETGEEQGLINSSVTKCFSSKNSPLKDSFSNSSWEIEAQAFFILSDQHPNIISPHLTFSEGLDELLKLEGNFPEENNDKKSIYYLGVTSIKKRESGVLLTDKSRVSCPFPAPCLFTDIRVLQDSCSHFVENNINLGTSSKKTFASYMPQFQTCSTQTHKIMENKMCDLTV
Assay: IL-1R tl levels in human endometrial epithelial cells (Western blot)
Assay type: cell-based
Details: EEC cultures
Method: Primary human endometrial cells (ESC and EEC) were cultured for 5-9 days in DMEM-F12 medium containing 5% fetal bovine serum (FBS), 5 μg/ml insulin, 1% amphopthericin B, 100 μg/ml streptomycin and 100 U/ml penicillin until they were 80% confluent. Two types of endometrial epithelial cell lines, HES (originally derived from a benign proliferative endometrium) and Ishikawa (human endometrial epithelial adenocarcinoma, ECACC 9832301, Wiltshire, England) were cultured under the same conditions described above. The cells were washed twice with 100 mM phosphate saline buffer (PBS), pH 7.2 and cultured for additional 2 days in the same medium but without FBS (basal medium). Cells were washed as described before and cultured in basal medium containing leptin (0, 3, 10 or 62 nM) or IL-1β (0.6, 3 and 10 nM). […]
Endometrial cells were washed with ice-cold PBS and lysed by homogenization on ice with lysis buffer A [[…] Tris, pH 7.4, containing 137 nM NaCl, 2 mM EDTA, 10% glycerol, 50 mM β-glycerophosphate, 1% Nonidet P-40 and a mixture of proteases and phosphatase inhibitors composed of 100 μM antipain, 0.1 mg/ml trypsin inhibitor, protease inhibitor cocktail 1:50 (Sigma), 50 nM NaF, 2 mM phenyl-methylsulfonyl fluoride, and 2 mM sodium orthovanadate]. […] Protein concentrations were determined using the Bradford protein assay (BioRad Laboratories Inc., Hercules, Calif.). […]

IL-1R tl levels after leptin | effect on leptin-induced IL-1R tl levels | Substance
increase the levels of IL-1R tl |  | leptin: human recombinant leptin (R&D Systems), OB-R ligand used as stimulus
 | inhibited the leptin-induced effects | SRNVIQISNDLENLRDLLHVLAFSKS [LPA-2, 26 amino acid peptide, residues 70-95 of helix III of the human leptin molecule; leptin peptide antagonist]
